Laboratory results reported in the DeepSol protein solubility set.

Assay: soluble on expression in E. coli; label from the status in PepcDB or PDB records

Row | Sequence | soluble on expression in E. coli
1 | MSQDPFALLKAEVDLLGRLLGEAIRTLSGERFFALVEEVRALAKARRQGDEAAGEALLARVEGLSTEEAEALVRAFTHYFHLVNLAEERHRVRVNRLRAQAETLESPRPEGFLALAKALKERGLSLEEAEAHLNRLELLLTFTAHPTETRRRTLRHHLEALQRELEAGDRERLAARVALLYGTEEVRKARPTVEDEIKGGLYYLPTTLWEAVPRVVAGLEAALERVYGRRPRLKSPVRFRSWIGGDRDGNPFVTPEVTAFAGRYAREVARRRFLEALEDLVRDLSLAEARVPVPREVRERGEGVERFMGEPYRRYFAALYRALEREEATTEGLLAALKAAERGLREVGLGRVAEAFLDPLEARLSAFGLELAPLDLREESGRLLEAAAELLRVGGVHPDFLALPQEERERLLTEELKTARPLLPVGEAPEGEALRVALGALKAWRDKGAHVVSMTHHPEDLLAVFLLAREVGLYRPGRPLPFDVVPLFETLEDLRRAPGVLRRLLENPVFLAHARGRGGVEVMIGYSDSNKDAGFLMANLALYEAQEALSRVGEEVGLPVYFFHGRGTSTARGGGPAGRAIASLPPRSVGRRIRLTEQGEALADRYSHPDLAVRHLEQMLYHFALAALGPGQEPEARWREALAQAAEESTRRYRALLQEEGFFDFFEAFTPIREIGELPIASRPVYRRGRVRDIRDLRAIPWVMAWTQVRVLLPGWYGLSALEELPLDLLREMYRGWPFFASTLEAAAMALAKADMGVARLYLRLVPEPLRFFYRRLAEEHARTVALLEAVFQAPLLHNQRTLERQIRLRNPYVDPINIVQVELLRRYRAPGGKEDEALRRALLLSILGVAAGLRNAG | soluble
2 | MRLLVSCVDSGSIKEVLCNIGTDTSVQSALQPFHVAPHLAEGLKAYVDRMWVISEDEAILARNSGVVELVKISKHLKENEALQVDPKGESKNEKSLSDDLPKFDISEFEITSSVSDLFDDAKLESLSSKSVKRTKLVDGFVTLCPIKKDSSNNTFVAATKSGLLHIIKKGEDKKLIKLASLGLKAPVEFLQLYDLEDTDTDKYIFAYGGEENLIKLVEIDSSFQSLKQIWEAKNVKNDRLDMRVPVWPMALRFLEPSPGKTEKGKLNYQFAAITRWSHLTKYSTQHGRKPFAQIDLLPNREPLSQMEVFDAKGENVVSSLGNFQSETFNELNVITTDYKKNVFKFDGNGRMLGKVGRDDITGSSTYIHVHDGKYLLQGGLDRYVRIFDIKTNKMLVKVYVGSRINFIVMLDDVEIEMPLSPSAKAAKGKQKRKVTELEEDADELWNKLEGKVAASKASKKSKI | soluble
3 | GQSGPLPKPSLQALPSSLVPLEKPVTLRCQGPPGVDLYRLEKLSSSRYQDQAVLFIPAMKRSLAGRYRCSYQNGSLWSLPSDQLELVATGVFAKPSLSAQPGPAVSSGGDVTLQCQTRYGFDQFALYKEGDPAPYKNPERWYRASFPIITVTAAHSGTYRCYSFSSRDPYLWSAPSDPLELVVT | soluble
4 | MTEPGERRRRTTSTATRERGVRDARDAARRAADALSELIRHHLEGVSAVCRGEDGGWIVNVDVLEVARIPDTTSLLATYEVELDPAGDLLQYRRIARYRRGAQDQLEHHHHHH | not soluble
5 | MKKPFSKLFGLKNKDDIIGHIEEDRNSNVESIQIERIVPNRYQPRQVFEPNKIKELAESIHEHGLLQPIVVRPIEEDMFEIIAGERRFRAIQSLNLPQADVIIRDMDDEETAVVALIENIQRENLSVVEEAEAYKKLLEIGDTTQSELAKSLGKSQSFIANKLRLLKLAPKVLLRLREGKITERHARAVLSLSDSEQEALIEQVIAQKLNVKQTEDRVRQKTGPEKVKAQNLRFAQDVTQARDEVGKSIQAIQQTGLHVEHKDKDHEDYYEIKIRIYKR | not soluble
6 | MKRLWQHCHAATLKGGKYSIVEDAALVTDGPLIHWIGPRAELPPGDYAERIDLGGAWLTPGLIDCHTHAVFGGNRSGEFEQRLEGVSYAEIAAAGGGIASTVRATREASEEELLASARKRLEPLLRDGVTALEIKSGYGLDLASERKMLRVIRRLGERLPATVRSTCLAAHALPPEYAGRADDYIEHICSTMLPALAGEGLVDAVDAFCEHLAFSPAQVERVFIAARELGLPVKLHAEQLSSLHGSSLAARYRALSADHLEYMTEDDARAMGEAGTVAVLLPGAFYLLRETQLPPIDALRRHGVAMAIASDLNPGTSPALSLRLMLNMACTLFRLTPEETLAGVTLHAARALGLEASHGSLEVGKLADFVAWDIERPAELAYWLGGDLPKRVIRHAEEVYRG | not soluble
7 | MSLDNHNPKKSTTPNNEFHKKIATTGKIINLPKQSIVPAVSISVYNDMKTIVLTPMEFQLSSIGFQFQNLIIDLPHSTISTNCITFYYHQDHILIDLIDQNYLFITLKIAIDRFILGGQQLTLDNFEEWGYISVPYSFELRSSPFLLKCLDNLNLIVSLKDGGLLHFKRDEELGEINVFNFQEQGTLIPFLGFFGSGKQKDVVLDGVSSNSIVDALQIGGSGVVITLSVNKVLKLWNLDGHQNLSSLTIASDDNTWLPTIPSKYLKSYDQEDGKTIITLFINTKSGDSSKSMFVFKSFELESSNEGHHHHHH | not soluble
8 | MSQQGLERRLLAGLQGLGLTINQAQRAVKHFGADALDRLEKDLFTLTEVEGIGFLTADKLWQARGGALDDPRRLTAAAVYALQLAGTQAGHSFLPRSRAEKGVVHYTRVTPGQARLAVETAVELGRLSEDDSPLFAAEAAATGEGRIYLPHVLRAEKKLASLIRTLLATPPADGAGNDDWAVPKKARKGLSEEQASVLDQLAGHRLVVLTGGPGTGKSTTTKAVADLAESLGLEVGLCAPTGKAARRLGEVTGRTASTVHRLLGYGPQGFRHNHLEPAPYDLLIVDEVSMMGDALMLSLLAAVPPGARVLLVGDTDQLPPVDAGLPLLALAQAAPTIKLTQVYRQAAKNPIIQAAHGLLHGEAPAWGDKRLNLTEIEPDGGARRVALMVRELGGPGAVQVLTPMRKGPLGMDHLNYHLQALFNPGEGGVRIAEGEARPGDTVVQTKNDYNNEIFNGTLGMVLKAEGARLTVDFDGNVVELTGAELFNLQLGYALTVHRAQGSEWGTVLGVLHEAHMPMLSRNLVYTALTRARDRFFSAGSASAWQIAAARQREARNTALLERIRAHLEHHHHHH | soluble
9 | MGSDKIHHHHHHMSIFANLFKKQADADAKVVGNVEDFVSLTRVYFQSVIAVNLGITNIRFLPDVANFKRLFKVATQGGKLGLAEKSASRKMLMQDYGISESFFKEIDTSIKKNCRTQNDVQAYLFMYQGFSSDLMMLMGNLMQWKFRMPAIFKKALRSMTEKTVHDVCTKTVWKADDVHKTAAAVRQYKERLGFSEQWMSEYVYNIVLLAKKEPKHKDEEAKAK | not soluble
10 | MYRSFFYPTRLALLAVGRNFMPMAWWMPASKEPFRFLLAVDRKNHTLSLLRELSEAALAFYPWEERAWVVRAGYLSGGRVDKARRLGVPLRPACCLAHTQVPEGALAVYEMRVSEWPWDGDHALFMGEVVHVEGSAEAKERPILFLGFRDFATLGERWRFRPGGAKPLPREERGKP | soluble
11 | MRGSAFNGKWETESQEGYEPFCKLIGIPDDVIAKGRDFKLVTEIVQNGDDFTWTQYYPNNHVVTNKFIVGKESDMETVGGKKFKGIVSMEGGKLTISFPKYQQTTEISGGKLVETSTASGAQGTAVLVRTSKKVLVPR | soluble
12 | MTYSHEVEHMCVVKKGPNHGPAPIPEEGKWVKSKEIVDISGLTHGIGWCAPQQGACKLTLNVKEGVIQEALVETIGCSGMTHSAAMAAEILPGKTILEALNTDLVCDAINTAMRELFLQIVYGRTQSAFSEGGLIIGAGLEDLGKGLRSQVGTLYGTLAKGPRYLEMAEGYIKNIFLDKNDEICGYEFVHMGKFMDEIKKGTDANEALKKVTGTYGRVTAEQGAVKHIDPRHE | not soluble
13 | AGHMTSILSRNHVKVKGSGKASIMFAPGFGCDQSVWNAVAPAFEEDHRVILFDYVGSGHSDLRAYDLNRYQTLDGYAQDVLDVCEALDLKETVFVGHSVGALIGMLASIRRPELFSHLVMVGPSPCYLNDPPEYYGGFEEEQLLGLLEMMEKNYIGWATVFAATVLNQPDRPEIKEELESRFCSTDPVIARQFAKAAFFSDHREDLSKVTVPSLILQCADDIIAPATVGKYMHQHLPYSSLKQMEARGHCPHMSHPDETIQLIGDYLKAHV | soluble
14 | MSLESRPLHVVLGNEACDLDSTVSALALAFYLAKTTEAEEVFVPVLNIKRSELPLRGDIVFFLQKVHIPESILIFRDEIDLHALYQAGQLTLILVDHHILSKSDTALEEAVAEVLDHRPIEPKHCPPCHVSVELVGSCATLVTERILQGAPEILDRQTAALLHGTIILDCVNMDLKIGKATPKDSKYVEKLEALFPDLPKRNDIFDSLQKAKFDVSGLTTEQMLRKDQKTIYRQGVKVAISAIYMDLEAFLQRSNLLADLHAFCQAHSYDVLVAMTIFFNTHNEPVRQLAIFCPHVALQTTICEVLERSHSPPLKLTPASSTHPNLHAYLQGNTQVSRKKLLPLLQEALSAYFDSMKIPSGQPETADVSREQVDKELDRASNSLISGLSQDEGHHHHHH | not soluble
15 | MSEGPKKAGVLGSPIAHSRSPQLHLAAYRALGLHDWTYERIECGAAELPVVVGGFGPEWVGVSVTMPGKFAALRFADERTARADLVGSANTLVRTPHGWRADNTDIDGVAGALGAAAGHALVLGSGGTAPAAVVGLAELGVTDITVVARNSDKAARLVDLGTRVGVATRFCAFDSGGLADAVAAAEVLVSTIPAEVAAGYAGTLAAIPVLLDAIYDPWPTPLAAAVGSAGGRVISGLQMLLHQAFAQVEQFTGLPAPREAMTCALAALD | not soluble
16 | MDFPCLWLGLLLPLVAALDFNYHRQEGMEAFLKTVAQNYSSVTHLHSIGKSVKGRNLWVLVVGRFPKEHRIGIPEFKYVANMHGDETVGRELLLHLIDYLVTSDGKDPEITNLINSTRIHIMPSMNPDGFEAVKKPDCYYSIGRENYNQYDLNRNFPDAFEYNNVSRQPETVAVMKWLKTETFVLSANLHGGALVASYPFDNGVQATGALYSRSLTPDDDVFQYLAHTYASRNPNMKKGDECKNKMNFPNGVTNGYSWYPLQGGMQDYNYIWAQCFEITLELSCCKYPREEKLPSFWNNNKASLIEYIKQVHLGVKGQVFDQNGNPLPNVIVEVQDRKHICPYRTNKYGEYYLLLLPGSYIINVTVPGHDPHITKVIIPEKSQNFSALKKDILLPFQGQLDSIPVSNPSCPMIPLYRNLPDHSAATKPSLFLFLVSLLHIFFK | soluble
17 | MRGSHHHHHHTDPALRAQTQVLFEHPLNEKMRTWLRIEFLIQQLTVNLPIVDHAGALHFFRNVSELLDVFERGEVRTELLKELDRQQRKLQTWIGVPGVDQSRIEALIQQLKAAGSVLISAPRIGQFLREDRLIALVRQRLSIPGGCCSFDLPTLHIWLHLPQAQRDSQVETWIASLNPLTQALTMVLDLIRQSAPFRKQTSLNGFYQDNGGDADLLRLNLSLDSQLYPQISGHKSRFAIRFMPLDTENGQVPERLDFELACCGLCGR | soluble
18 | MDTVTKLSIIIPAWNEETGIARTLETLLALTAGRGDTEIIVSVSGNDRTKAIARTFPVVVCHSEKGRAVQMNAGAKLATGSILYFLHADTTPPPSFCDDIFSAIERGARAGCFRMTFDDPDWLMQLYGWFTQFPLPVCRGGDQSLFITKELFGQIGGFDERLQIMEDIEIIDRLQRHAGFHILDSTVTTSARKYHTNGTVRLQAIFGTIHLMYALGFSQKNIVAFYRDSIRLEHHHHHH | not soluble
19 | MAYCNPGLESRPNKRNALRRHVVTGIGMKIVIAPDSYKESLSASEVAQAIEKGFREIFPDAQYVSVPVADGGEGTVEAMIAATQGAERHAWVTGPLGEKVNASWGISGDGKTAFIEMAAASGLELVPAEKRDPLVTTSRGTGELILQALESGATNIIIGIGGSATNDGGAGMVQALGAKLCDANGNEIGFGGGSLNTLNDIDISGLDPRLKDCVIRVACDVTNPLVGDNGASRIFGPQKGASEAMIVELDNNLSHYAEVIKKALHVDVKDVPGAGAAGGMGAALMAFLGAELKSGIEIVTTALNLEEHIHDCTLVITGEGRIDSQSIHGKVPIGVANVAKKYHKPVIGIAGSLTDDVGVVHQHGIDAVFSVLTSIGTLDEAFRGAYDNICRASRNIAATLAIGMRNAG | soluble
